Columns and labels:
[1] = test system: P. aeruginosa strains (PAO1, 33356, 6294, 6077, 6206, PA103A); assay: Acute pneumonia model in mice, survival; assay type: in vivo, Pseudomonas aeruginosa; conditions: W4-RAD 0.2 mg/kg
Method: (§1) Antibodies or PBS were administered 24 hours before infection in each model. P. aeruginosa acute pneumonia, keratitis, and thermal injury infection models were performed as described (DiGiandomenico, A., et al., Proc Natl Acad Sci USA 104, 4624-4629 (2007)), with modifications. In the acute pneumonia model, BALB/c mice (The Jackson Laboratory) were infected with P. aeruginosa strains suspended in a 0.05 ml inoculum. In the thermal injury model, CF-1 mice (Charles River) received a 10% total body surface area burn with a metal brand heated to 92° C. for 10 seconds. Animals were infected subcutaneously with P. aeruginosa strain 6077 at the indicated dose. For organ burden experiments, acute pneumonia was induced in mice followed by harvesting of lungs, spleens, and kidneys 24 hours post-infection for determination of CFU.
The in vivo effect of administration of an anti-PcrV antibodies was studied in mice using an acute pneumonia model. Groups of mice were treated with either increasing concentrations of the V2L2 antibody, a positive control anti-PcrV antibody (mAb166), or a negative control (R347), as shown in FIG. 13 (A-B). Groups of mice were also treated with either increasing concentrations of the V2L2 antibody, the PcrV antibody PcrV-02, or a negative control (R347), as shown in FIG. 13 (C-D). Twenty-four hours after treatment, all mice were infected with 5×10^7 CFU (C) Pseudomonas aeruginosa 6294 (06) or (D) PA103A (O11).
Groups of mice were treated with either increasing concentrations of the 11A6, 3G5 or V2L7, the same concentrations of 29D2, 1F3, 1E6, V2L2, LE10, SH3, 4A8, 2H3, or 21F1, increasing concentrations of the 29D2, increasing concentrations of the V2L2, the PcrV antibody PcrV-02, or a negative control (R347), as shown in FIG. 13 (E-H). Mice were injected intraperitoneally (IP) with mAbs 24 hours prior to intranasal infection with Pseudomonas strain 6077 (1×10^6 CFU/animal).

[2] = test system: P. aeruginosa strains (PAO1, 33356, 6294, 6077, 6206); assay: Acute pneumonia model in mice, organ burden (CFU in lung, spleen, kidneys); assay type: in vivo, Pseudomonas aeruginosa; conditions: 6294 2.5×10^7 CFU; bispecifics 0.7 mg/kg, W4-RAD 0.5 mg/kg; FIG. 23A
Method: as §1
Organ burden of Pseudomonas-infected mice was also studied in response to administration of V2L2. FIG. 14 (A) Mice were treated with either 1 mg/kg R347 (control), or 1 mg/kg, 0.2 mg/kg, or 0.07 mg/kg of V2L2 and then were infected intranasally with 1.2×10^6 cfu of Pseudomonas 6206. FIG. 14 (B) Mice were also treated with either 15 mg/kg R347 (negative control); 15.0 mg/kg, 5.0 mg/kg, or 1.0 mg/kg mAb166 (positive control); or 5.0 mg/kg, 1.0 mg/kg, or 0.2 mg/kg V2L2 and then were infected intranasally with 5.5×10^6 cfu of Pseudomonas 6206.
The in vivo effect of combination administration of anti-Psl and anti-PcrV binding domains was further studied in mice using the antibodies V2L2 and WapR-004 (RAD). Groups of mice were treated with R347 (2.1 mg/kg—negative control), V2L2 (0.1 mg/kg), W4-RAD (0.5 mg/kg), or V2L2/W4 combination (either 0.1, 0.5, 1.0 or 2.0 mg/kg each). Twenty-four hours post-administration of antibody, all mice were infected with an inoculum containing 5.25×10^5 cfu 6206 (O11-ExoU+). Twenty-four hours post infection, lungs, spleens, and kidneys were harvested, homogenized, and plated for colony forming unit (CFU) identification per gram of tissue.

[3] = test system: P. aeruginosa strain 6077 (O11-cytotoxic); assay: Corneal infection (ocular keratitis) model in mice; assay type: in vivo, Pseudomonas aeruginosa; conditions: C3H/HeN mice; IP, 16 hours prior to infection with 6077 1×10^6 CFU; graded at 48 h; FIG. 8H
Method: as §1
Cam-003 and WapR-004 efficacy was next evaluated in a P. aeruginosa corneal infection model which emphasizes the pathogens ability to attach and colonize damaged tissue. […] FIG. 8 (H): The activity of anti-Psl and anti-PcrV monoclonal antibodies V2L2 was tested in a P. aeruginosa mouse ocular keratitis model. […]

[4] = test system: P. aeruginosa (6077 exoU+; 6206) lysis of rabbit red blood cells; assay: Rabbit red blood cell (RBC) lysis inhibition assay; assay type: cell-based, Pseudomonas aeruginosa; conditions: strain 6077; FIG. 12D-E
Method: Percent inhibition of cytotoxicity analysis was analysed for the parental V2L2 mAb, mAb166 (positive control) and R347 (negative control), where the antibodies were administered to cultured broncho-epithelial cell line A549 combined with log-phase P. aeruginosa strain 6077 (exoU+) at a MOI of approximately 10. A549 lysis was assayed by measuring released lactate dehydrogenase (LDH) activity and lysis in the presence of mAbs was compared to wells without mAb to determine percent inhibition. The V2L2 mAb, mAb166 (positive control) and R347 (negative control) were evaluated for their ability to prevent lysis of RBCs, where the antibodies were mixed with log-phase P. aeruginosa 6077 (exoU^+) and washed rabbit red blood cells (RBCs) and incubated for 2 hours at 37°. Intact RBCs were pelleted and the extent of lysis determined by measuring the OD405 of the cell-free supernatant. Lysis in the presence of anti-PcrV mAbs was compared to wells without mAb to determine percent inhibition. The positive control antibody, mAb166, is a previously characterized anti-PcrV antibody (J Infect Dis. 186: 64-73 (2002), Crit Care Med. 40: 2320-2326 (2012)).

rPcrV protein = assay: Binding kinetics, Bio-Rad ProteOn XPR36; set-up: species or system Pseudomonas aeruginosa; conditions: antibody captured, rPcrV injected; FIG. 12G-H
Method: Binding kinetics of V2L2-GL and V2L2-MD were measured using a Bio-Rad ProteOn™ XPR36 instrument. Antibodies were captured on a GLC bisensor chip using anti-human IgG reagents. rPcrV protein was injected at multiple concentrations and the dissociation phase followed for 600 seconds. Data was captured and analyzed using ProteOn Manager software. […] The clone V2L2-MD had increased Kd by 2-3 folds over V2L2-GL.

B1: WapR-004RAD: identical to WapR-004 except for an amino acid substitution G98A of the VH; VH SEQ ID NO:74, VL SEQ ID NO:12 (antibody, V domains shown)
VH: EVQLLESGPGLVKPSETLSLTCNVAGGSISPYYWTWIRQPPGKGLELIGYIHSSGYTDYNPSLKSRVTISGDTSKKQFSLHVSSVTAADTAVYFCARADWDLLHALDIWGQGTLVTVSS
VL: EIVLTQSPSSLSTSVGDRVTITCRASQSIRSHLNWYQQKPGKAPKLLIYGASNLQSGVPSRFSGSGSGTDFTLTISSLQPEDFATYYCQQSYSFPLTFGGGTKLEIK
modifications: WapR-004RAD VH; WapR-004 & WarR-004RAD VL
animals survived ([1]; 6206, monitored 120 hours, FIG. 21A): Approximately 90%
effect on survival ([1]; 6294, FIG. 24): did not affect survival
organ burden in lung, spleen, kidney [2]: had no effect on decreasing organ burden
corneal pathology and CFU in total eye homogenates vs R347 [3]: significantly less pathology and reduced bacterial colony forming units (CFU) in total eye homogenates

B2: V2L2-MD: optimized V2L2-GL mAb; germlined lead optimized anti-PcrV antibody (antibody, V domains shown)
VH: EMQLLESGGGLVQPGGSLRLSCAASGFTFSSYAMNWVRQAPGEGLEWVSAITISGITAYYTDSVKGRFTISRDNSKNTLYLQMNSLRAGDTAVYYCAKEEFLPGTHYYYGMDVWGQGTTVTVSS
VL: AIQMTQSPSSLSASVGDRVTITCRASQGIRNDLGWYQQKPGKAPKLVIYSASTLQSGVPSRFSGSGSGTDFTLSISSLQPDDFATYYCLQDYNYPWTFGQGTKVEIK
modifications: V2L2-MD VH; V2L2-MD and V2L2-GL VL
prevention of RBC lysis [4]: demonstrated prevention of RBC lysis
change of Kd over V2L2-GL (rPcrV protein): 2-3 folds

Source: patent US11203633B2, “Polynucleotides encoding antibodies or antigen binding fragments thereof that bind pseudomonas perv” (priority 2011, dated 2021)
